Results on one molecule are retold here after paper PMC1876262.

In this assay the target is Bovine brain tubulin (bovine) (UniProt Q6B856).
UniProt Q6B856, sequence (Q6B856 whole entry, looked up): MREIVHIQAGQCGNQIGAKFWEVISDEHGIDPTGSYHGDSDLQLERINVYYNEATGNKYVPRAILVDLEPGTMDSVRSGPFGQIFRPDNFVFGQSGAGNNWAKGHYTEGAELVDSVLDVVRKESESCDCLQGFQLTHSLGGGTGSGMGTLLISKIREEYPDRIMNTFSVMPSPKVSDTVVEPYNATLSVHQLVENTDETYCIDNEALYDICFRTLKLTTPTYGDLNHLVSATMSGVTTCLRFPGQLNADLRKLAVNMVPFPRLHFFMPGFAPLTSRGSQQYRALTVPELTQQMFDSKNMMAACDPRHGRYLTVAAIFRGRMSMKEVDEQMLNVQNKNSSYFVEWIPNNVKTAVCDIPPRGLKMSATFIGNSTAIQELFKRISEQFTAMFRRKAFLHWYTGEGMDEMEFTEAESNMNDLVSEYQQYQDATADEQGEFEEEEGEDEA

B1: wt human αB crystallin (natural protein)
chain: MDIAIHHPWIRRPFFPFHSPSRLFDQFFGEHLLESDLFPTSTSLSPFYLRPPSFLRAPSWFDTGLSEMRLEKDRFSVNLDVKHFSPEELKVKVLGDVIEVHGKHEERQDEHGFISREFHRKYRIPADVDPLTITSSLSSDGVLTVNGPRKQVSGPERTIPITREEKPAVTAAPKK
For B1, the decrease of thermal aggregation of tubulin: OD340 at 52°C for 60 min (Figure 4) is 65%.
